Data taken from article PMC8396674.
“And” between values parts separate entries of the source, which are not always exact repeats. Identical values can stand only once.

Columns and labels:
[1] = biological target: gC1q domain of human otolin-1, natural variant R339S (human); assay: AUC; sedimentation velocity, 0.1, 0.25 and 0.5 mg/mL protein in 10 mM HEPES pH 7.0, 500 mM NaCl, 5% glycerol with 10 mM CaCl2, 20 °C, 50,000 rpm, c(s) analysis; also 0.25 mg/mL with 1 mM DTT
[2] = biological target: gC1q domain of human otolin-1, natural variant Q426R (human); assay: as above
[3] = biological target: gC1q domain of human otolin-1, natural variant R402P (human); assay: AUC; sedimentation velocity, 0.1, 0.25 and 0.5 mg/mL protein in 10 mM HEPES pH 7.0, 500 mM NaCl, 5% glycerol with 1 mM EDTA (no Ca2+), 20 °C, 50,000 rpm, c(s) analysis; also 0.25 mg/mL with 1 mM DTT
[4] = biological target: gC1q domain of human otolin-1, natural variant R402P (human); assay: AUC; sedimentation velocity, 0.1, 0.25 and 0.5 mg/mL protein in 10 mM HEPES pH 7.0, 500 mM NaCl, 5% glycerol with 10 mM CaCl2, 20 °C, 50,000 rpm, c(s) analysis; also 0.25 mg/mL with 1 mM DTT
[5] = biological target: gC1q domain of human otolin-1 (hOtolC1q), wild type (human); assay: as above
[6] = biological target: gC1q domain of human otolin-1, natural variant R342W (human); assay: AUC; sedimentation velocity, 0.1, 0.25 and 0.5 mg/mL protein in 10 mM HEPES pH 7.0, 500 mM NaCl, 5% glycerol with 1 mM EDTA (no Ca2+), 20 °C, 50,000 rpm, c(s) analysis; also 0.25 mg/mL with 1 mM DTT
[7] = biological target: gC1q domain of human otolin-1, natural variant R342W (human); assay: AUC; sedimentation velocity, 0.1, 0.25 and 0.5 mg/mL protein in 10 mM HEPES pH 7.0, 500 mM NaCl, 5% glycerol with 10 mM CaCl2, 20 °C, 50,000 rpm, c(s) analysis; also 0.25 mg/mL with 1 mM DTT

gC1q domain of human otolin-1, natural variant R339S (domain or fragment)
stoichiometry N [1]: 3

gC1q domain of human otolin-1, natural variant Q426R (domain or fragment)
stoichiometry N [2]: 3

gC1q domain of human otolin-1, natural variant R402P (domain or fragment)
stoichiometry N [3]: 2
stoichiometry N [4]: 2

gC1q domain of human otolin-1 (hOtolC1q), wild type (domain or fragment)
stoichiometry N [5]: 3

gC1q domain of human otolin-1, natural variant R342W (domain or fragment)
stoichiometry N [6]: 2 and 4
stoichiometry N [7]: 3
